Results taken from US20210095032A1 (SALUBRIS CHENGDU BIOTECH, published 2021).
Like-named read-outs stand apart in the source and are kept apart here.

Key:
[1] = target: T1, biotin-labeled human PD-1 Fc protein (human, biotin-labeled (site not stated)); test: capture ELISA, antibody captured on plate, biotin-labeled human PD-1 Fc in solution
T1 construct: also called PD-1-Fc-biotin
Method: (§1) Plates were washed 4 times with wash buffer (PBS+0.05% Tween-20, PBST) and then blocked with 200 μl/well blocking buffer (5% w/v non-fatty milk in PBST) for 2 hours at 37° C. […] After a final wash, plates were incubated with 100 μl/well ELISA substrate TMB (Innoreagents). The reaction was stopped in 15 minutes at 25° C. with 50 μl/well 1M H₂SO₄, and the absorbance was read at 450 nm. Data were analyzed using Graphpad Prism software and EC₅₀ values were reported.

[2] = target: T2, recombinant human PD-1-his (Sino biological, #10377-H08H) (human, UniProt Q15116 25-167); test: SPR (Biacore), antibody captured, human PD-1-his flowed
T2 construct: Bought protein; also called Human PD-1-his protein; not shown: his tag
Description: (§2) Briefly, goat anti-mouse IgG (GE healthcare, Cat #BR100839, Human Antibody Capture Kit) was covalently linked to a CMS chip (carboxy methyl dextran coated chip) via primary amines, using a standard amine coupling kit (GE healthcare, Pittsburgh, Pa., USA) provided by Biacore. Un-reacted moieties on the biosensor surface were blocked with ethanolamine. […] Then, recombinant human PD-1-his (Sino biological, #10377-H08H) or cynomolgus monkey PD-1-his protein (Acro biosystems, #PD-1-05223) in HBS EP buffer (provided by Biacore) was flowed onto the chip at a flow rate of 30 μL/min. The antigen-antibody association kinetics was followed for 2 minutes and the dissociation kinetics was followed for 10 minutes. The association and dissociation curves were fit to a 1:1 Langmuir binding model using BIA evaluation software.

[3] = target: T1, biotin-labeled human PD-1 Fc protein; test: competition ELISA, antibody + biotin human PD-1-Fc on coated human PD-L1-Fc (competitor PD-L1-Fc)
Method: (§3) The next day, plates were washed with wash buffer (PBS+0.05% Tween-20, PBST), and blocked with 5% non-fatty milk in PBST for 2 hours at 37° C. Plates were then washed again using wash buffer.
(§4) After incubation at 37° C. for 40 minutes, plates were washed for 4 times using wash buffer. […] Plates were washed again using wash buffer. Finally, TMB was added and the reaction was stopped using 1M H₂SO₄, and the absorbance was read at 450 nm. Data were analyzed using Graphpad Prism software and IC₅₀ values were reported.

[4] = target: T1, biotin-labeled human PD-1 Fc protein; test: competition ELISA, antibody + biotin human PD-1 Fc on coated Nivolumab (competitor Nivolumab)
Method: (§5) The next day, plates were washed with wash buffer, and blocked with 5% non-fatty milk in PBST for 2 hours at 37° C. […] Plates were finally washed using wash buffer. TMB was added and the reaction was stopped using 1M H₂SO₄, and the absorbance was read at 450 nm. Data were analyzed using Graphpad Prism software and IC₅₀ values were reported.

[5] = target: T1, biotin-labeled human PD-1 Fc protein; test: capture ELISA, antibody captured on plate, biotin-labeled human PD-1 Fc in solution; remark: listed apart in the source
Method: as §1

[6] = target: T3, human PD-1 on PD-1 Effector Cell Line (Genscript, GS-J2/PD-1) (human, UniProt Q15116 25-288); test: cell-based or functional assay
[7] = target: T4, cynomolgus monkey PD-1-his protein (Acro biosystems, #PD-1-05223) (cynomolgus monkey, UniProt B0LAJ3 25-170); test: SPR (Biacore), antibody captured, cynomolgus PD-1-his flowed
T4 construct: Bought protein; also called Cynomolgus PD-1; Cynomolgus PD1
Description: as §2

[8] = target: T1, biotin-labeled human PD-1 Fc protein; test: competition ELISA, antibody + biotin human PD-1 Fc on coated Nivolumab (competitor Nivolumab); remark: listed apart in the source
Method: as §5

[9] = target: T1, biotin-labeled human PD-1 Fc protein; test: capture ELISA, antibody captured on plate, biotin-labeled human PD-1 Fc in solution; remark: listed apart in the source
Method: as §1

[10] = target: T1, biotin-labeled human PD-1 Fc protein; test: competition ELISA, antibody + biotin human PD-1-Fc on coated human PD-L1-Fc (competitor PD-L1-Fc); remark: listed apart in the source
Method: as §3, §4

[11] = target: T1, biotin-labeled human PD-1 Fc protein; test: capture ELISA, antibody captured on plate, biotin-labeled human PD-1 Fc in solution; remark: listed apart in the source
Method: as §1

[12] = target: T3, human PD-1 on PD-1 Effector Cell Line …; test: cell-based or functional assay; remark: listed apart in the source
[13] = target: T4, cynomolgus monkey PD-1-his protein …; test: SPR (Biacore T200), antibody captured, PD-1-his flowed, 1:1 Langmuir fit
Description: as §2

[14] = target: T2, recombinant human PD-1-his (Sino …); test: as above
Description: as §2

[15] = target: T1, biotin-labeled human PD-1 Fc protein; test: capture ELISA, antibody captured on plate, biotin-labeled human PD-1 Fc in solution; remark: listed apart in the source
Method: as §1

[16] = target: T1, biotin-labeled human PD-1 Fc protein; test: competition ELISA, antibody + biotin human PD-1 Fc on coated Nivolumab (competitor Nivolumab); remark: listed apart in the source
Method: as §5

[17] = target: T1, biotin-labeled human PD-1 Fc protein; test: capture ELISA, antibody captured on plate, biotin-labeled human PD-1 Fc in solution; remark: listed apart in the source
Method: as §1

[18] = target: T1, biotin-labeled human PD-1 Fc protein; test: competition ELISA, antibody + biotin human PD-1-Fc on coated human PD-L1-Fc (competitor PD-L1-Fc); remark: listed apart in the source
Method: as §3, §4

[19] = target: T3, human PD-1 on PD-1 Effector Cell Line …; test: cell-based or functional assay; remark: listed apart in the source
[20] = target: T1, biotin-labeled human PD-1 Fc protein; test: capture ELISA, antibody captured on plate, biotin-labeled human PD-1 Fc in solution; remark: listed apart in the source
Method: as §1

EC50 [1] [nM]	Kd [2] [nM]	IC50 [3] [nM]	IC50 [4] [nM]	EC50 [5] [ng/mL]	Cell-based functional assay (EC50, nM) [6] [nM]	Kd [7] [nM]	IC50 [8] [nM]	EC50 [9] [ng/mL]	IC50 [10] [nM]	EC50 [11] [nM]	Reporter Activation (EC50, nM), human PD-1 cell (NFAT-luc)/human PD-L1 cell [12] [nM]	Kd [13] [nM]	koff [13] [s⁻¹]	kon [13] [M⁻¹ s⁻¹]	Kd [14] [nM]	koff [14] [s⁻¹]	kon [14] [M⁻¹ s⁻¹]	IC50 [16] [nM]	Cell-based functional reporter assay (IC50, nM) [19] [nM]	Binder	also measured
0.17	0.373	0.89	0.21	0.388	8.48	1.46	0.76	0.18	0.89	0.17	3.02	1.46	0.000308	211000	0.373	0.000122	326000	0.21	8.48	mouse anti-PD-1 monoclonal antibody D2H3 (antibody, V domains shown, Mouse antibody purified from a hybridoma; also called Mouse D2H3; mouse D2H3) VH: EVQLQQSGTVLARPGASVKMSCKSSGYTFTNYWMHWVKQRPGQGLEWIGAIFPRNSETNYNQKFKAKAKLTAVTSASTAYMEVSSLTSEDSAVYFCTRNRYGLDYWGQGTSVTVSS VL: DIVLTQSPGFLAVSLGQRATISCRASESVSLHGTRLMHWYHQKPGQPPKLLISLGSNLESGVPARFSGSGSETDFTLNIHPVEEEDAATYFCQQSIEDPWTFGGGTKLEIK	EC50 [15]: 0.15 nM; EC50 [17]: 0.229 ng/mL; IC50 [18]: 0.19 nM
0.13	2.55	1.51	0.33	–	6.18	6.57	2.22	–	1.51	0.13	8.1	6.57	0.000793	121000	2.55	0.000401	157000	0.33	6.18	mouse anti-PD-1 monoclonal antibody D2A4 (antibody, V domains shown, Mouse antibody purified from a hybridoma; also called Mouse D2A4; mouse D2A4) VH: EVKLVESGGGLVKPGGSLKLSCAASGFTFSSYTMSWVRQTPAKRLEWVATISGGGSNTYYPDSVKGRFTISRDNARNTLYLQMSSLRSEDTAMYYCARQAFYSNYWYFDVWGAGTTVTVSS VL: DIQMTQSPASQSASLGESVTITCLASQTIGTWLAWYQQTPGKSPQLLIYAATSLADGVPSRFSGSGSGTKFSFKISSLQAEDFASYYCQQVSSIPWTFGGGTKLEIR	EC50 [15]: 0.19 nM; EC50 [20]: 0.281 ng/mL; IC50 [18]: 0.17 nM

Continued, binder first:

Binder	EC50 [1] [nM]	Kd [2] [nM]	IC50 [3] [nM]	IC50 [4] [nM]	EC50 [5] [ng/mL]	Cell-based functional assay (EC50, nM) [6] [nM]	Kd [7] [nM]	IC50 [8] [nM]	EC50 [9] [ng/mL]	IC50 [10] [nM]	EC50 [11] [nM]	Reporter Activation (EC50, nM), human PD-1 cell (NFAT-luc)/human PD-L1 cell [12] [nM]	Kd [13] [nM]	koff [13] [s⁻¹]	kon [13] [M⁻¹ s⁻¹]	Kd [14] [nM]	koff [14] [s⁻¹]	kon [14] [M⁻¹ s⁻¹]	IC50 [16] [nM]	Cell-based functional reporter assay (IC50, nM) [19] [nM]	also measured
huD2H3-V14 (antibody, human IgG1, kappa, V domains shown, Humanized D2H3, human IgG1/kappa) VH: EVQLVQSGAEVKKPGSSVKVSCKASGYTFTNYWMHWVRQAPGQGLEWMGAIFPRNSETNYNQKFKARVTITADESTSTAYMELSSLRSEDTAVYYCTRNRYGLDYWGQGTLVTVSS VL: DIVMTQSPDSLAVSLGERATINCRASESVSLHGTRLMHWYQQKPGQPPKLLIYLGSNLESGVPDRFSGSGSGTDFTLTISSLQAEDVAVYYCQQSIEDPWTFGQGTKLEIKR	0.17	0.308	0.68	0.18	0.531	7.11	1.5	–	–	–	–	–	–	–	–	–	–	–	–	–	–
chimeric D2H3 antibody (antibody, human IgG1, kappa, V domains shown, Mouse variable domains cloned in frame to human IgG1 and kappa constant regions; also called chD2H3) VH: EVQLQQSGTVLARPGASVKMSCKSSGYTFTNYWMHWVKQRPGQGLEWIGAIFPRNSETNYNQKFKAKAKLTAVTSASTAYMEVSSLTSEDSAVYFCTRNRYGLDYWGQGTSVTVSS VL: DIVLTQSPGFLAVSLGQRATISCRASESVSLHGTRLMHWYHQKPGQPPKLLISLGSNLESGVPARFSGSGSETDFTLNIHPVEEEDAATYFCQQSIEDPWTFGGGTKLEIKR	0.17	0.441	0.74	0.19	0.31	5.36	1.78	–	1.04	0.74	0.17	–	–	–	–	–	–	–	0.19	5.36	EC50 [17]: 1.51 ng/mL
